Assay in all cases: MST
Settings in all cases: 5-bromo-dC at every C, MST at 22 C, 5 nM labeled DNA, 0.5 mg/ml BSA, 0.05% Tween 20, 5 mM HEPES pH 7.5, 20 mM NaCl (Table 2), 20 mM HEPES pH 8.0, 100 mM NaCl (Table 4)

Data set [1] deals with T1, hZαADAR1 (human) (UniProt P55265).
T1 sequence: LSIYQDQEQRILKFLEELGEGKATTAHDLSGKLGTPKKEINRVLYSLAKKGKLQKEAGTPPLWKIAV

Data set [2] has as its target T2, GH5*:α3NADAR1-PW K41G;S42G;R43G;K53A;R95A;del65;D66K;L67K;Q68E;K70N;L71R;S72V;I73L;R74Y;R75S;S91P;F94W (/ human ADAR1 α3N and β-wing residues) (UniProt P02259).
T2 sequence: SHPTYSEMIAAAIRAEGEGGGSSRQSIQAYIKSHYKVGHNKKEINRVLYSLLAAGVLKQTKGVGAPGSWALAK

For data set [3], the target named is vvZαE3L (UniProt P21605).
In data set [4] the target is T1, hZαADAR1 (human). This is another data set of the same source.

The values that follow come from paper PMC7736808.

The Kd is a measure of binding affinity in units of concentration. Low readings indicate tighter binding, high ones weaker binding.

For the sequence “TCGCGCGCGCGCGCGCGCGCGCGCGCGCGCG (double strand) [Z-DNA, [d(5'-Cy5-T(Br5CG)15)]2]”, the Kd in data set [1] stood at 600 nM; in data set [2], 1800 nM; in data set [3], 2000 nM; in data set [4], 18 nM.
